This experiment has as its target c-Met (human (endogenous in HCC413)), P08581. Nature of the experiment: flow cytometry on cells; HCC413 cells treated with EGF-FITC or HGF-FITC alone or with unlabeled LZ-8 for 15 min; fixed; relative mean fluorescence intensity. The following applies: remark: other sources report otherwise. A general note: A flow cytometer gives signals particle by particle.

c-Met (human (endogenous in HCC413)), P08581, sequence (P08581 25-1390): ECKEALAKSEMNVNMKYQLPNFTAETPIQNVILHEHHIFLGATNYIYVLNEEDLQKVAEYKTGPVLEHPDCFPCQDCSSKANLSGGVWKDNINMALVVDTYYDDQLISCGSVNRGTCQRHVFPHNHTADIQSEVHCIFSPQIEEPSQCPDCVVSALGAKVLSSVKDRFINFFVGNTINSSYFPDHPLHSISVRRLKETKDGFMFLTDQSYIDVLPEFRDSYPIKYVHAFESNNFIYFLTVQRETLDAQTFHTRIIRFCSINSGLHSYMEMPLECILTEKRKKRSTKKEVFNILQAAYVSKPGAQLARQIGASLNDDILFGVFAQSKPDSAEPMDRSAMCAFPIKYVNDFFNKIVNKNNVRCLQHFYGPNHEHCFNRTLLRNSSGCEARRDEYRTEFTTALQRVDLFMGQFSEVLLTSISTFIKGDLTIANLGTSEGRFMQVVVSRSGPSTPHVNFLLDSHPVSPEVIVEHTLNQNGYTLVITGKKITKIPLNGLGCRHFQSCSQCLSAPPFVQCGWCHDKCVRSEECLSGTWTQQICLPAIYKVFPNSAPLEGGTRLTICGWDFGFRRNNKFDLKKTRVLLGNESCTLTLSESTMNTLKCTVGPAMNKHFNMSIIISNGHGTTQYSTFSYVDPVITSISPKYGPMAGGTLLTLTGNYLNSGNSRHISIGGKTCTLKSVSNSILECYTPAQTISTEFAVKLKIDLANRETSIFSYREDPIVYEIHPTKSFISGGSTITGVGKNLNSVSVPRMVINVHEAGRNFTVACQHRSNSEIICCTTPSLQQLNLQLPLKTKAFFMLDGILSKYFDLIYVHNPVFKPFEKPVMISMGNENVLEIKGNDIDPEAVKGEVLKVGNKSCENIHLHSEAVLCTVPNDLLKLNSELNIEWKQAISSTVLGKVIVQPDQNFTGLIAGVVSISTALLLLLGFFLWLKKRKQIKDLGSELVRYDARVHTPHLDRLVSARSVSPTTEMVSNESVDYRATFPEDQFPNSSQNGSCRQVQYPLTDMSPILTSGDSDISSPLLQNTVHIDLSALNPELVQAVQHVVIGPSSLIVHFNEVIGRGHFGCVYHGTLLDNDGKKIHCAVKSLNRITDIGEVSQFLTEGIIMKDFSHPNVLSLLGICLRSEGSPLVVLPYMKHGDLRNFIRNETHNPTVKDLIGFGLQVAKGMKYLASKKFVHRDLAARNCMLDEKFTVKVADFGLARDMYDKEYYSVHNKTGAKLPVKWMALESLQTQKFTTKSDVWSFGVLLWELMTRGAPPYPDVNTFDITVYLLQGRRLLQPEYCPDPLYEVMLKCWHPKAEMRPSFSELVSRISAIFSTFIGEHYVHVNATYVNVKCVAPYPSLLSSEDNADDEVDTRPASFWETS

B1: Ling-Zhi-8, P14945 1-111 (natural protein)
chain: MSDTALIFRLAWDVKKLSFDYTPNWGRGNPNNFIDTVTFPKVLTDKAYTYRVAVSGRNLGVKPSYAVESDGSQKVNFLEYNSGYGIADTNTIQVFVVDPDTNNDFIIAQWN
modifications: here or on the partner: N-glycans (sites not given)
For the molecule B1, the percent suppression of HGF-FITC binding on the cell surface came to 30%.

For the origin of these results see publication PMC6356446.
